assay: yeast display, Sf9 membrane polyspecificity reagent, FACS + sequencing; frameworks hold sequencing errors
Method in brief: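 Galactose induction of a Saccharomyces cerevisiae BJ5465 synthetic nanobody display library ran 36–48 hours. The cells were then stained for 1 hour at 4 °C with 10% biotinylated, detergent-solubilized Sf9 membrane reagent, pulled down on streptavidin microbeads and FACS-sorted into low and high (top ~1%) gates on expression and reagent-binding fluorescence. Labels for polyreactivity follow the gate of origin.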

Sequence | polyreactivity (PSR sort gate)
QVQLQESGGGLVQAGGSLRLSCAASGSIFDYVSMGWYRQAPGEERELVVTITLGSNTYYADSVKGRFTISSDIAKNTVYLQMNSLNPEDTAVYYCAPSALWGYVYPYWGLGTQVTVSS | high polyreactivity
QVQLQESGGGLVQAGGSLRLSCAASGSIFLFYTMGWYRQAPVKEREFVAGITLGTTTYNADSVKGRFTISRDNVKNTVYLQMNSLKPEDTAVYYCNAVGDARYNYWGQGTQVTVSS | high polyreactivity
QVQLQESGGGLVQAGGSLRLSCAASGSIFNVVDMGLYRQAPAKEREFVATIGEGGNTYYADSLKGSFTISRDNAKNTVYLQMNSLKPEDTAVYFYAVVLGTSFRYTYWGQGTQVTVSS | low polyreactivity
QVQLQESGGGLVQAGGSLRLSCAASGSISGPHLMGWYRQAPGQEREFVAAINVGANTYYADNVKGRFTISRDNAKNTLYLQMNSLKPEDTAVYYCAAVYYGDIGHEYWGQGTQVTVSC | low polyreactivity
QVQLQESGGGLVQAGGSLRLSCAASGSISNSAAKVWYRQAPGKERELVVSIGHGASSNYADSVKGRFTISRDNAKNTVYLQMNSLKPEDTAVYYCAAYPGFLDGFFYWGQSTQVTVSS | high polyreactivity
QVQLQESGGGLVQAGGSLRLSCAASGSISRLDYMGWYRQPSGKERELVAAIDNGSTTYYADSVKGRLTISRDNAKYTVYLQMNSLKPEDTAVYFCAAVRGRGGTHAYWGQGTQVTVSG | low polyreactivity
QVQLQESGGGLVQAGGSLRLSCAASGSISSRDAMGWYRQAPGKEREFVATIASGTTTYYADSVKGSFTISRDNAENTLYLQTNSLKPEDTAVYYCAAPTIQIYPFYYWGQGTQVTVSS | high polyreactivity
QVQLQESGGGLVQAGGSLRLSCAASGTISDSGLMGWYRQAPVKERELVAGIRSGGITNYADSVKGRFTISRDNAKNTVYLQMNSLKPEDTAVYWGQGTQVTVSS | low polyreactivity
QVQLQESGGGLVQAGGSLRLSCAASGTISQEDWMGWYRQAPGKEREFVAAIGLGSNTNYADSLKGRFSISRDPAKITVYLQMNSLKPEDTAVYYCAVSVWQYSDHVYRGQGTQVTVSS | low polyreactivity
QVQLQESGGGLVQAGGSLRLSCAASGTISYAPHMGWYRQAPGKERELVAGITIGGTTYYADIVIGRFTISRDNAKNTVFLQMNSLSPGDTAVYYCAAHSEQYTPFYYWGQGTQVTVSS | low polyreactivity
QVQLQESGGGLVQAGGSLRLSCAASGTISYAPHMGWYRQAPGTDSELVAGITIGGTTYYADSVKGRFTISRDNAKNTVYLQMNSLSPGDTAVYYCAAHSEQYTPFYYWGQGTQVTVSS | low polyreactivity
QVQLQESGGGLVQAGGSLRLSCAASGTITVLYKMGWFRLAPGKEREFVASINYGTSTYYADSVKGRFTVSRDSAKNTVYLQMNSLKPEDTAVYYCAAAYRWQDVYRYWGQGTQVTVSS | low polyreactivity
QVQLQESGGGLVQAGGSLRLSCAASGTITVLYKMVWFRQAPGKEREFVASINYGTSTYYADSVKGRFTVSRDSAKNTVYLQMNSLKPEDTAVYYCAAAYRWQDVYRYWGQGTQVTVSS | low polyreactivity
QVQLQESGGGLVQAGGSLRLSCAASGTNFYKDDMGWYRQAPGKEREFVAGIDRGGTTNCAGSVKGRFTISRDNAKNTVYLQMISLKPEDTAVYYCAAYYPDIYPFIYRGQGTQVTVSS | high polyreactivity
QVQLQESGGGLVQAGGSLRLSCAASGYIFPRIYMGWYRQAPGKEREFDAGISYDAITNYADSVKGRYTISLDNAKNTVYLQMNSLKPEDTAVYYCAVSYYGTPLFTYWGQGTQVTVSS | high polyreactivity
QVQLQESGGGLVQAGGSLRLSCAASGYISFSGYIGRYRQAPGKEREFVDSITPGRSTYYADSVKGRFTISRDNAENTVYLQMNSLKPEDTAVYYCAADDSRTEQHAYWGQGTQVTVSS | high polyreactivity
QVQLQESGGGLVQAGGSLRLSCAASGYISHADEMGWYRQAPGKEHELVASISNGGSTNYADSVKGRFTISRDNAKNTVYQQMNSLKSEYTAVYYCAALTGQVDIHYYWCQGTQVTVSS | low polyreactivity
QVQLQESGGGLVQAGGSLRLSCAASGYISHADEMGWYRQAPGLEHELVASISNGGSTNYADSVKGLFTISRDNAKNTEYLQLNSLKSEDTAVYYCAAWTGQVDIHYYWGQGTQVTVSS | low polyreactivity

— the nanobody polyreactivity screen of Harvey et al. (2022)
